{"source": "paper PMC7595577", "binders": {"B1": {"name": "QA255.072 IgG (antibody, V domains shown)", "VH": "QVQLIQSGAEVRKPGSSVKVSCKAVGATFHNYAVSWVRQAPGQGLEWMGGIIPIRGLANQEPRFQGRLTITADESTGAIYMDLSSLRSDDSAVYYCARHYDDTSGFFYGAFDIWGQGTTLIVSS", "VL": "DIQMTQSPPSLSASVGDRVTISCRASQGIGNSVAWYQQKPGKAPKLLILAASSLRSGVPSRFSGSMSGTDFTLTISGLQPEDVATYYCQKYNSAPWTFGQGTKVEIK"}}, "molecular_target": "biotinylated CD16 (UniProt P08637)", "assay": "BLI"}
{"binder": "B1", "values": [{"measurement": "Kd", "value": 4.9, "unit": "µM"}]}
